In article PMC10200994 (2023) one finds screen value data, which are given here for one variant.

B1: STAT5B (unphosphorylated, wild-type), fluorophore fusion [not stated] / STAT5A (unphosphorylated, wild-type), fluorophore fusion [not stated] (parent complex)
chain 1: MAVWIQAQQLQGEALHQMQALYGQHFPIEVRHYLSQWIESQAWDSVDLDNPQENIKATQLLEGLVQELQKKAEHQVGEDGFLLKIKLGHYATQLQNTYDRCPMELVRCIRHILYNEQRLVREANNGSSPAGSLADAMSQKHLQINQTFEELRLVTQDTENELKKLQQTQEYFIIQYQESLRIQAQFGPLAQLSPQERLSRETALQQKQVSLEAWLQREAQTLQQYRVELAEKHQKTLQLLRKQQTIILDDELIQWKRRQQLAGNGGPPEGSLDVLQSWCEKLAEIIWQNRQQIRRAEHLCQQLPIPGPVEEMLAEVNATITDIISALVTSTFIIEKQPPQVLKTQTKFAATVRLLVGGKLNVHMNPPQVKATIISEQQAKSLLKNENTRNDYSGEILNNCCVMEYHQATGTLSAHFRNMSLKRIKRSDRRGAESVTEEKFTILFESQFSVGGNELVFQVKTLSLPVVVIVHGSQDNNATATVLWDNAFAEPGRVPFAVPDKVLWPQLCEALNMKFKAEVQSNRGLTKENLVFLAQKLFNNSSSHLEDYSGLSVSWSQFNRENLPGRNYTFWQWFDGVMEVLKKHLKPHWNDGAILGFVNKQQAHDLLINKPDGTFLLRFSDSEIGGITIAWKFDSQERMFWNLMPFTTRDFSIRSLADRLGDLNYLIYVFPDRPKDEVYSKYYTPVPCESATAKAVDGYVKPQIKQVVPEFVNASADAGGGSATYMDQAPSPAVCPQAHYNMYPQNPDSVLDTDGDFDLEDTMDVARRVEELLGRPMDSQWIPHAQS
chain 2: MAGWIQAQQLQGDALRQMQVLYGQHFPIEVRHYLAQWIESQPWDAIDLDNPQDRAQATQLLEGLVQELQKKAEHQVGEDGFLLKIKLGHYATQLQKTYDRCPLELVRCIRHILYNEQRLVREANNCSSPAGILVDAMSQKHLQINQTFEELRLVTQDTENELKKLQQTQEYFIIQYQESLRIQAQFAQLAQLSPQERLSRETALQQKQVSLEAWLQREAQTLQQYRVELAEKHQKTLQLLRKQQTIILDDELIQWKRRQQLAGNGGPPEGSLDVLQSWCEKLAEIIWQNRQQIRRAEHLCQQLPIPGPVEEMLAEVNATITDIISALVTSTFIIEKQPPQVLKTQTKFAATVRLLVGGKLNVHMNPPQVKATIISEQQAKSLLKNENTRNECSGEILNNCCVMEYHQATGTLSAHFRNMSLKRIKRADRRGAESVTEEKFTVLFESQFSVGSNELVFQVKTLSLPVVVIVHGSQDHNATATVLWDNAFAEPGRVPFAVPDKVLWPQLCEALNMKFKAEVQSNRGLTKENLVFLAQKLFNNSSSHLEDYSGLSVSWSQFNRENLPGWNYTFWQWFDGVMEVLKKHHKPHWNDGAILGFVNKQQAHDLLINKPDGTFLLRFSDSEIGGITIAWKFDSPERNLWNLKPFTTRDFSIRSLADRLGDLSYLIYVFPDRPKDEVFSKYYTPVLAKAVDGYVKPQIKQVVPEFVNASADAGGSSATYMDQAPSPAVCPQAPYNMYPQNPDHVLDQDGEFDLDETMDVARHVEELLRRPMDSLDSRLSPPAGLFTSARGSLS

Variants of B1 are the subject of the assay. The assay is described as follows: co-localization assay (quantitative fluorescence microscopy in HeLa cells); bait S5A-NES, test S5B-L82A; 27 cells (parent 17 cells); parent: 0.97.
For the variant chain 1 L82A, the screen value is 0.65.
